Experimental data taken from patent publication US8343490B2, “Monoclonal antibody SC104 and derivative thereof specifically binding to a sialyltetraosyl carbohydrate as a potential anti-tumor therapeutic agent” (Cephalon Australia Pty Ltd, priority 2004, dated 2013).

Legend:
C170 cells [1] = assay: FACS antibody saturation on fresh and fixed cells; type: binding
Experimental: FACS on fresh and fixed cells. C170 cells (10^5) either fresh or fixed with 0.5% glutaraldehyde for 1 hr were resuspended in 100 μl of SC104 mab (0-100 μg/ml) and incubated on ice for 1 hr. After washing the samples 3 times in RPMI/10% FCS cells were incubated with FITC labelled rabbit anti-mouse (1/80: Dako Ltd, Bucks, UK) antibody and incubated on ice for 30 minutes prior to analysing by FACS as described above.

[2] = test system: range of tumour cell lines; assay: Binding to tumour cell lines by ELISA; details: SC104 1 μg/ml; FIG. 2a
Experimental: C170, Colo205, MKN45, R1D9, and 791T cells (10^5) were resuspended in 50 μl of SC104 mab (0-20 μg/ml) and incubated on ice for 20 min. After washing the samples 3 times in RPMI/10% FCS cells were incubated with FITC labelled rabbit anti-mouse (1/50: Dako Ltd, Bucks, UK) antibody and incubated on ice for 30 minutes prior to analysis on a FACScan (Becton Dickinson, Sunnyvale, Calif.). Results are expressed as mean linear fluorescence (MLF). • Binding to tumour cells by ELISA. 96-well tissue culture plates were coated with cells at a cell density of 5×10^5 cells/ml (100 μl/well) in 10% foetal bovine serum in RPMI 1640. The plates were incubated overnight at 37° C., 5% CO2, 95% air. The cells were then washed twice in phosphate buffered saline (pH7.3, PBS) prior to being fixed with 0.5% glutaraldehyde in PBS (10 min, 25° C., 100 μl/well). Remaining non-specific binding sites were blocked by incubation for 1 hr with 1% bovine serum albumin (fraction V from Sigma Chemicals Ltd.) in PBS. The cells were washed three times with a washing solution consisting of 0.05% Tween 20 in phosphate buffered saline. Cells were incubated with SC104 (1 μg/ml) for 1 hr at room temperature and then bound antibody detected with goat anti-mouse horse radish peroxidase and ABTS. Results are expressed as absorbance at 405 nm. Results

[3] = test system: SC104 antigen purified from sputum; assay: Cross-reaction of antigen purified from sputum with antibodies; type: binding; details: FIG. 13
Excerpt: • SC104 antigen purification and characterisation. SC104 specific antigen was purified from sputum samples mixed in a 1:1 ratio with 0.1M pH 7.6 Tris 0.5% NP40. Briefly an immuno-affinity was produced cross linking SC104 S136A to Protein A Cl-6B sepharose using Dimethyl pimelimidate.2HCl as the covalent linker Results

CEA = target: T1, CEA (Homo sapiens, UniProt P06731); assay: ELISA on purified CEA; type: binding; details: FIG. 4
T1 construct: from tissue
T1 sequence (P06731 35-676): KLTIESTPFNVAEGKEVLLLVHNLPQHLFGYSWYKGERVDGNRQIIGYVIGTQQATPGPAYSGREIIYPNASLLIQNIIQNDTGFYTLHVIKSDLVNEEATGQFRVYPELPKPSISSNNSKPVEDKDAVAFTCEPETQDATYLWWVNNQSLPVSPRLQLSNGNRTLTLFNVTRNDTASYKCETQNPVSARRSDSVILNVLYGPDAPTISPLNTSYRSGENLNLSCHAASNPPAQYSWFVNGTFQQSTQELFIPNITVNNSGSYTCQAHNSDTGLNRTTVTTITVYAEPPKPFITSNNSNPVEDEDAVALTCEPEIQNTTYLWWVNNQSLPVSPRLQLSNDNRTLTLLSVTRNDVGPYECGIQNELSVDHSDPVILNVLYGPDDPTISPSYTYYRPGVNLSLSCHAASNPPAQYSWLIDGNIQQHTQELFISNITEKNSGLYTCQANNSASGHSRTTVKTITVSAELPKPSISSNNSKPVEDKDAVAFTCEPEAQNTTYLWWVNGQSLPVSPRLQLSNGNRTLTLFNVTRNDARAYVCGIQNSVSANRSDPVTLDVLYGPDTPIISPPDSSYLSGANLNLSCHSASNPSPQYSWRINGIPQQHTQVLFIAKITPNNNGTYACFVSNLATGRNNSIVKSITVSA
Experimental: (§1) • Binding to purified antigen preparations. […] Binding of SC104 mab was assayed by ELISA as described above.

[4] = ELISA on tumour glycolipid extract; type: binding; details: FIG. 4
Experimental: as §1

[5] = test system: colorectal tumour sections; assay: Immunoperoxidase staining of frozen colorectal tumour sections (screening); type: binding; design: key: −: negative; +: minimal; 2+: strong; 3+: very strong
Experimental: ELISA. Antibody responses in the serum of immunised mice were assayed by titration using a standard non-competitive ELISA procedure. 96-well tissue culture plates were coated with C170 cells at a cell density of 5×10^5 cells/ml (100 μl/well) in 10% foetal bovine serum in RPMI 1640. The plates were incubated overnight at 37° C., 5% CO2, 95% air. The cells were then washed twice in phosphate buffered saline (pH7.3, PBS) prior to being fixed with 0.5% glutaraldehyde in PBS (10 min, 25° C., 100 μl/well). Remaining non-specific binding sites were blocked by incubation for 1 hr with 1% bovine serum albumin (fraction V from Sigma Chemicals Ltd.) in PBS. The cells were washed three times with a washing solution consisting of 0.05% Tween 20 in phosphate buffered saline before assaying post-boost serum for binding to C170 cells using a non-competitive sandwich ELISA. The pre-immunisation serum was used as a negative control. • Immunohistochemistry. Binding of hybridoma supernatants to tumour tissues was determined by indirect immunoperoxidase staining of frozen colorectal tumour sections. […] The bound antibody was detected with rabbit anti-mouse Ig conjugated to peroxidase (Dako Ltd., Bucks., UK) and following extensive washing the slides were stained with 0.05% diaminobenzidine and 0.01% H2O2 in 0.05M Tris-HCl, pH7.6 and counterstained with haematoxylin. […]

[6] = test system: C14 antigen (90 KDa glycoprotein purified from saliva); assay: ELISA on C14 antigen; type: binding; details: FIG. 4
Experimental: as §1

[7] = Blood group antigen ELISA, H type II; type: binding
Experimental: The Lewis ^y hapten and the type I and type II H blood group antigen (Sigma, Poole, Dorset) were dried microtitre plates by overnight incubation at 37° C. Binding of SC104 mab was assayed by ELISA as described above.

C170 cells [8] = assay: Inhibition of SC104 cell death by z-FMK-vad caspase inhibitor; type: cell-based; details: 3 μg/ml SC104 with 3 μM z-FMK-vad inhibitor, overnight; annexin V FITC/PI
Experimental: SC104 inhibition of cell death using the z-FMK-vad caspase inhibitor. 2×10^5 C170 cells were subjected to 3 μg/ml of SC104 and half were also incubated with 3 μM z-FMK-vad inhibitor (Promega, catalogue number G7232) and incubated overnight. The following day cell viability was assayed using annexin V FITC and propidium iodide.

B1: SC104: mouse IgG1 monoclonal antibody specific for a sialyltetraosyl carbohydrate, raised by immunisation with colorectal cancer cell lines (antibody, V domains shown)
VH: DVQLQESGPDLVKPSQSLSLTCTVTGYSITSGYSWHWVRQFPGNKMEWMGHIHFSGRPTYNPSLSSRISITRDTSKNQFLLQLKFVTTEDTSTYFCARKGKGSDDGLNYWGQGISVTVSS
VL: ENVLTQSPVIMSASPGEKVTMTCSASSSLSYIHWYQQKSRTSPKLWIYDTSNLASGVPGRFSGSGSGNSYSLTISSMEAEDVATYYCFQGSEYPLTFGGGTKLEMT
C170 cells [1]
  number of SC104 haptens at the surface of C170 tumour cells: approximately 4×10^5 sites per cell
C170 cells [1]; SC104 0-100 μg/ml, FIG. 22
  antigen saturation on fresh and fixed cells: not saturated even at SC104 concentration of 100 μg/ml
[2]
  binding to range of tumour cell lines by ELISA: predominantly bound to cell lines of the gastrointestinal origin
[3]
  cross-reaction with antigen purified from sputum: cross-react
CEA
  staining of CEA by ELISA: No significant staining
[4]
  binding to methanol/chloroform tumour glycolipid extract by ELISA: A similar result was obtained
[5]
  Immunohistochemistry Colorectal Tumour: 3+
[6]
  binding to Lewis ^y/b expressing 90 KDa glycoprotein from saliva by ELISA: bound
[7]
  Binding to blood group antigens by ELISA: H blood group Type II: 0.076 OD 405 nm
C170 cells [8]
  increase in viable cells in the presence of the inhibitor: 23%
